Like-named read-outs stand apart in the source and are kept apart here.
Experiments:
[1] = molecular target: eIF2•GDPNP•Met-tRNAi ternary complex; assay: native gel or EMSA
[2] = molecular target: eIF2•GDPNP•Met-tRNAi ternary complex; assay: native gel or EMSA; remark: listed apart in the source

| Kd [1] [nM] | Kd [2] [nM] | Substance |
| --- | --- | --- |
| 14 | < 1 | 40S ribosomal subunit, anion exchange column preparation (complex) |
| 13 | < 1 | 40S ribosomal subunit, sucrose cushion preparation (complex) |

Source: article PMC5324736
